# Data published in patent US20190269786A1 (published 2019).
# Like-named read-outs stand apart in the source and are kept apart here.
# Columns and labels:
# [1] = target: T1, folate receptor 1 (FOLR1) (human, UniProt P15328 25-234); experiment: flow cytometry binding on T47D cells
# [2] = target: T1, folate receptor 1 (FOLR1); experiment: flow cytometry binding on T47D cells; remark: listed apart in the source
# T1 sequence (P15328 25-234): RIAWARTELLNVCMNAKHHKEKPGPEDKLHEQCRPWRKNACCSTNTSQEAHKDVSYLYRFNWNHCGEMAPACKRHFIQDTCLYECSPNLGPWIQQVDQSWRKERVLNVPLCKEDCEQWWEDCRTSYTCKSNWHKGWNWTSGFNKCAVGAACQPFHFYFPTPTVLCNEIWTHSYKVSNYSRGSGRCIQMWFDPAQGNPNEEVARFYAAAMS
binder,measurement,setting,value
"huMOV19 antibody (antibody, V domains shown) VH: QVQLVQSGAEVVKPGASVKISCKASGYTFTGYFMNWVKQSPGQSLEWIGRIHPYDGDTFYNQKFQGKATLTVDKSSNTAHMELLSLTSEDFAVYYCTRYDGSRAMDYWGQGTTVTVSS VL: DIVLTQSPLSLAVSLGQPAIISCKASQSVSFAGTSLMHWYHQKPGQQPRLLIYRASNLEAGVPDRFSGSGSKTDFTLTISPVEAEDAATYYCQQSREYPYTFGGGTKLEIKR",EC50,[1],0.144 nM
same,EC50,[2],0.314 nM
